In US6602659:

Target: human ST receptor protein (human) (UniProt P25092)
Test: receptor binding on colorectal tumor samples (local and metastasized); method and ligand not described

Chain of UniProt P25092 (P25092 other isoform, or with tags, fused parts or gaps limits assumed): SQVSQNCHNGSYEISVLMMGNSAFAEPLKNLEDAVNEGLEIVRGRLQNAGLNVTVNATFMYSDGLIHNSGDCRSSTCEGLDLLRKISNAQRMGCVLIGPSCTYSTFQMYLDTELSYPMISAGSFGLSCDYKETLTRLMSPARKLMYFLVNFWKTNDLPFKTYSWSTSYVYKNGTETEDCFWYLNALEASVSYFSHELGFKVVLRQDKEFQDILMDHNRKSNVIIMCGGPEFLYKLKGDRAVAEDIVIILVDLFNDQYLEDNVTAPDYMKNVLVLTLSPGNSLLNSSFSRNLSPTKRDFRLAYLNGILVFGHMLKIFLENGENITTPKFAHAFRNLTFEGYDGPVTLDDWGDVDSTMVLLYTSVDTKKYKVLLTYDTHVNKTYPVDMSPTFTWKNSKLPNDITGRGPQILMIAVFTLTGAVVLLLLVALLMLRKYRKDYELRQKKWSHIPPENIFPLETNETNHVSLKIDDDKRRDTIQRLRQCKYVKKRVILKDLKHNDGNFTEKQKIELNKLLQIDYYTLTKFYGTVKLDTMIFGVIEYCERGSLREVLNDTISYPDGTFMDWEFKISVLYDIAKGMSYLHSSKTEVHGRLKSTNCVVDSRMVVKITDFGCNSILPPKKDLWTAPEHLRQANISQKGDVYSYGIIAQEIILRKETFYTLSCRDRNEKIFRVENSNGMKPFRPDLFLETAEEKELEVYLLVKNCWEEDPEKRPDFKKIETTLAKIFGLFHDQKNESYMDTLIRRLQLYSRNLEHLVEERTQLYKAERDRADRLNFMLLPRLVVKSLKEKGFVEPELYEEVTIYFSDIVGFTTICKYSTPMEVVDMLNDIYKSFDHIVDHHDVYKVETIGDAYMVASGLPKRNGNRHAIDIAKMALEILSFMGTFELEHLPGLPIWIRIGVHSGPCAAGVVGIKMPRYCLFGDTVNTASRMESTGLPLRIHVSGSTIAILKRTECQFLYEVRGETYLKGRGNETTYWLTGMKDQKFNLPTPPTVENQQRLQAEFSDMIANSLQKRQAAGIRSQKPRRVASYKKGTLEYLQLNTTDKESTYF

Substance: heat-stable toxin (ST) (peptide)
- affinity: < 1e-07
